This sample holds only a part of the variants without activity.
Legend:
[1] = tested on: biotinyl-Val-oxazolone; assay: self-aminoacylation, catalytic enhancement (BVO) (fold over background); higher = more active; k-Seq, kA / k0A0; sequences stand for … in GGGAAUGGAUCCACAUCUACGAAUUC…UUCACUGCAGACUUGACGAAGCUG
How it was run: (§1)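 Working in 50 μL HEPES/NaCl/KCl/MgCl2/CaCl2 buffer with 5% acetonitrile at pH 6.9–7.0, mutagenized RNA pools (0.43 μM; 21-nt variable region) were reacted with 2–1250 μM of each biotinyl-aminoacyl-oxazolone for 90 minutes at room temperature. Streptavidin capture followed, with quantification by triplicate qPCR and Illumina sequencing. Catalytic enhancement is reported as median kA over the uncatalyzed rate, the low-activity peak of a bimodal Gaussian fit to the data.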

[2] = tested on: biotinyl-Trp-oxazolone; assay: self-aminoacylation, catalytic enhancement (BWO) (fold over background); higher = more active; k-Seq, kA / k0A0; sequences stand for … in GGGAAUGGAUCCACAUCUACGAAUUC…UUCACUGCAGACUUGACGAAGCUG
How it was run: as §1

[3] = tested on: biotinyl-Leu-oxazolone; assay: self-aminoacylation, catalytic enhancement (BLO) (fold over background); higher = more active; k-Seq, kA / k0A0; sequences stand for … in GGGAAUGGAUCCACAUCUACGAAUUC…UUCACUGCAGACUUGACGAAGCUG
How it was run: as §1

[4] = tested on: biotinyl-Ile-oxazolone; assay: self-aminoacylation, catalytic enhancement (BIO) (fold over background); higher = more active; k-Seq, kA / k0A0; sequences stand for … in GGGAAUGGAUCCACAUCUACGAAUUC…UUCACUGCAGACUUGACGAAGCUG
How it was run: as §1

[5] = tested on: biotinyl-Phe-oxazolone; assay: self-aminoacylation, catalytic enhancement (BFO) (fold over background); higher = more active; k-Seq, kA / k0A0; sequences stand for … in GGGAAUGGAUCCACAUCUACGAAUUC…UUCACUGCAGACUUGACGAAGCUG
How it was run: as §1

[6] = tested on: biotinyl-Met-oxazolone; assay: self-aminoacylation, catalytic enhancement (BMO) (fold over background); higher = more active; k-Seq, kA / k0A0; sequences stand for … in GGGAAUGGAUCCACAUCUACGAAUUC…UUCACUGCAGACUUGACGAAGCUG
How it was run: as §1

| Sequence | self-aminoacylation [1] | self-aminoacylation [2] | self-aminoacylation [3] | self-aminoacylation [4] | self-aminoacylation [5] | self-aminoacylation [6] |
| --- | --- | --- | --- | --- | --- | --- |
| AUUCACAUAGGUCAUCAGGUG [Fam2.2 aminoacylation ribozyme variant] | 1.4 | 1.85 | 1.63 | 1.2 | 1.62 | 1.41 |
| AUUCACAUAGGUCAUCGGGUA [Fam2.2 aminoacylation ribozyme variant] | 2.57 | 3.56 | 2.54 | 2.24 | 22.7 | 2.86 |
| AUUCACAUAGGUCAUCGGGUG [Fam2.2 aminoacylation ribozyme variant] | 5.09 | 7.83 | 10.6 | 5.09 | 65.2 | 8.47 |
| AUUCACAUAGGUCAUGGGGUG [Fam2.2 aminoacylation ribozyme variant] | 4.12 | 6.97 | 9.35 | 4.56 | 46.7 | 7.28 |
| AUUCACAUAUGUCAUCGGGUG [Fam2.2 aminoacylation ribozyme variant] | 4.21 | 7.3 | 9.08 | 4.44 | 52.5 | 7.09 |
| AUUCACCAAGGCCAUCGGGUG [Fam2.2 aminoacylation ribozyme variant] | 3.49 | 4.57 | 5.34 | 3.32 | 30.1 | 5.09 |
| AUUCACCAAGGUCAACGGGUG [Fam2.2 aminoacylation ribozyme variant] | 3.1 | 6.16 | 8.07 | 3.52 | 42.5 | 6.3 |
| AUUCACCAAGGUCAUCGGGUU [Fam2.2 aminoacylation ribozyme variant] | 2.59 | 4.16 | 2.21 | 2.42 | 17.2 | 2.43 |
| AUUCACCAAGGUCAUCGGUUG [Fam2.2 aminoacylation ribozyme variant] | 1.39 | 1.69 | 1.72 | 1.42 | 9.05 | 1.55 |
| AUUCACCAAGGUCAUUGGGUG [Fam2.2 aminoacylation ribozyme variant] | 4.54 | 6.53 | 9.21 | 4.07 | 49.8 | 6.78 |
| AUUCACCAAGGUUAUCGGGUG [Fam2.2 aminoacylation ribozyme variant] | 4.4 | 6.57 | 8.94 | 4.45 | 63.7 | 7.8 |
| AUUCACCAAUGUCAUCGGGUG [Fam2.2 aminoacylation ribozyme variant] | 5.57 | 8.56 | 12.6 | 5.59 | 75.3 | 9.72 |
| AUUCACCACGGUCAUCGGGUG [Fam2.2 aminoacylation ribozyme variant] | 6.13 | 10 | 12.3 | 5.71 | 68.7 | 9.37 |
| AUUCACCCAGGGCAUCGGGUG [Fam2.2 aminoacylation ribozyme variant] | 3.72 | 3.92 | 6.26 | 3.62 | 20 | 3.74 |
| AUUCACCCAGGUAAUCGGGUG [Fam2.2 aminoacylation ribozyme variant] | 2.14 | 2.46 | 3.88 | 2.26 | 18.6 | 3.1 |
| AUUCACCCAGGUCAUCGGAUG [Fam2.2 aminoacylation ribozyme variant] | 0.988 | 1.07 | 0.895 | 0.889 | 0.458 | 0.669 |
| AUUCACCCAGGUCAUCGGCUG [Fam2.2 aminoacylation ribozyme variant] | 2 | 1.41 | 1.85 | 1.99 | 6.8 | 1.62 |
| AUUCACCCAGGUCAUCUGGUG [Fam2.2 aminoacylation ribozyme variant] | 2.25 | 3 | 4.84 | 2.35 | 28.2 | 3.99 |
| AUUCACCCAGGUCUUCGGGUG [Fam2.2 aminoacylation ribozyme variant] | 3.84 | 5.13 | 5.78 | 3.28 | 35 | 5.3 |
| AUUCACCCCGGUCAUCGGGUG [Fam2.2 aminoacylation ribozyme variant] | 3.99 | 5.88 | 8.33 | 4.14 | 64.7 | 7.52 |
| AUUCACCGAGGCCAUCGGGUG [Fam2.2 aminoacylation ribozyme variant] | 4.36 | 4.78 | 6.39 | 3.16 | 32.8 | 5.31 |
| AUUCACCGAGGUAAUCGGGUG [Fam2.2 aminoacylation ribozyme variant] | 5.13 | 8.26 | 11.5 | 4.23 | 60.4 | 8.27 |
| AUUCACCGAGGUCAUCGGAUG [Fam2.2 aminoacylation ribozyme variant] | 1.17 | 1.42 | 1.41 | 1.18 | 0.641 | 1.07 |
